Laboratory results as given in patent US20260242735A1 (UNIVERSIT T BASEL, published 2026).

Tests used:
Test in all cases: flow cytometry, mutant on cells, IgG
human CD33 N20T = human CD33 N20T (human, UniProt P20138 18-364)
Procedure: (§1) An alanine scan on human CD33 was performed to the determine the residues on CD33 that are involved in binding to the antibodies investigated. […] Briefly, a mutation library of CD33 was created by high-throughput, site-directed mutagenesis. Each residue was individually mutated to alanine, with alanine codons mutated to serine. The mutant library was arrayed in 384-well microplates and transiently transfected into HEK293-T. Following transfection, cells were incubated with the indicated antibodies (IgG or Fab) at concentrations pre-determined using an independent immunofluorescence titration curve on wild type CD33. […] Binding of each antibody to each mutant clone was determined in duplicates. For each point, background fluorescence was subtracted from the raw data, which were then normalized to antibody reactivity with wild type CD33.
(§2) Antibodies were screened for binding to the human CD33 variants in IgG format. […] For each mutation, background fluorescence was subtracted from the raw data, which were then normalized to antibody reactivity with wild-type CD33.

human CD33 N20L = human CD33 N20L (human, UniProt P20138 18-364)
Procedure: as §1, §2

human CD33 N20Y = human CD33 N20Y (human, UniProt P20138 18-364)
Procedure: as §1, §2

human CD33 N20D = human CD33 N20D (human, UniProt P20138 18-364)
Procedure: as §1, §2

human CD33 N20K = human CD33 N20K (human, UniProt P20138 18-364)
Procedure: as §1, §2

human CD33 F21S = human CD33 F21S (human, UniProt P20138 18-364)
Procedure: as §1, §2

human CD33 F21V = human CD33 F21V (human, UniProt P20138 18-364)
Procedure: as §1, §2

human CD33 F21H = human CD33 F21H (human, UniProt P20138 18-364)
Procedure: as §1, §2

human CD33 W22G = human CD33 W22G (human, UniProt P20138 18-364)
Procedure: as §1, §2

human CD33 W22T = human CD33 W22T (human, UniProt P20138 18-364)
Procedure: as §1, §2

human CD33 W22Y = human CD33 W22Y (human, UniProt P20138 18-364)
Procedure: as §1, §2

human CD33 W22N = human CD33 W22N (human, UniProt P20138 18-364)
Procedure: as §1, §2

human CD33 W22Q = human CD33 W22Q (human, UniProt P20138 18-364)
Procedure: as §1, §2

human CD33 L23M = human CD33 L23M (human, UniProt P20138 18-364)
Procedure: as §1, §2

human CD33 Q24S = human CD33 Q24S (human, UniProt P20138 18-364)
Procedure: as §1, §2

human CD33 Q24I = human CD33 Q24I (human, UniProt P20138 18-364)
Procedure: as §1, §2

human CD33 Q24N = human CD33 Q24N (human, UniProt P20138 18-364)
Procedure: as §1, §2

human CD33 Q24E = human CD33 Q24E (human, UniProt P20138 18-364)
Procedure: as §1, §2

human CD33 V25S = human CD33 V25S (human, UniProt P20138 18-364)
Procedure: as §1, §2

human CD33 V25I = human CD33 V25I (human, UniProt P20138 18-364)
Procedure: as §1, §2

human CD33 T42K = human CD33 T42K (human, UniProt P20138 18-364)
Procedure: as §1, §2

human CD33 F43V = human CD33 F43V (human, UniProt P20138 18-364)
Procedure: as §1, §2

human CD33 D18R = human CD33 D18R (human, UniProt P20138 19-364)
Procedure: as §1, §2

human CD33 F44I = human CD33 F44I (human, UniProt P20138 18-364)
Procedure: as §1, §2

human CD33 F44L = human CD33 F44L (human, UniProt P20138 18-364)
Procedure: as §1, §2

human CD33 F44P = human CD33 F44P (human, UniProt P20138 18-364)
Procedure: as §1, §2

human CD33 F44Q = human CD33 F44Q (human, UniProt P20138 18-364)
Procedure: as §1, §2

human CD33 F44H = human CD33 F44H (human, UniProt P20138 18-364)
Procedure: as §1, §2

human CD33 F44D = human CD33 F44D (human, UniProt P20138 18-364)
Procedure: as §1, §2

human CD33 D18N = human CD33 D18N (human, UniProt P20138 19-364)
Procedure: as §1, §2

human CD33 P46I = human CD33 P46I (human, UniProt P20138 18-364)
Procedure: as §1, §2

human CD33 P46L = human CD33 P46L (human, UniProt P20138 18-364)
Procedure: as §1, §2

human CD33 P46F = human CD33 P46F (human, UniProt P20138 18-364)
Procedure: as §1, §2

human CD33 P46Y = human CD33 P46Y (human, UniProt P20138 18-364)
Procedure: as §1, §2

human CD33 P19L = human CD33 P19L (human, UniProt P20138 18-364)
Procedure: as §1, §2

human CD33 I47V = human CD33 I47V (human, UniProt P20138 18-364)
Procedure: as §1, §2

human CD33 P19D = human CD33 P19D (human, UniProt P20138 18-364)
human CD33 P19D, sequence (P20138 18-364 P19D limits assumed): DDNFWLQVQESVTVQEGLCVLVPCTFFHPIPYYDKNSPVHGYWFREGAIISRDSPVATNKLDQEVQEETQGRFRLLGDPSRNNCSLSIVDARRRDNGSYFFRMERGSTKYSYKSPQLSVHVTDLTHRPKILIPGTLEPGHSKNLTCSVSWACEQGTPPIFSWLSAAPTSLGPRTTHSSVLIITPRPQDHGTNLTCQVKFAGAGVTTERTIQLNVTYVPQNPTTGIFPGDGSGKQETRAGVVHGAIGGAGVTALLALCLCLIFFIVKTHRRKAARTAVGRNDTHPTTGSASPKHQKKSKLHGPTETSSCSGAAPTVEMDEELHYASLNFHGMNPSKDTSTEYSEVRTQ
Procedure: as §1, §2

human CD33 F21S, sequence (P20138 18-364 F21S limits assumed): as the sequence (P20138 18-364 P19D limits assumed) above, with D2P, F4S counted along it
human CD33 N20K, sequence (P20138 18-364 N20K limits assumed): as the sequence (P20138 18-364 P19D limits assumed) above, with D2P, N3K counted along it
human CD33 N20D, sequence (P20138 18-364 N20D limits assumed): as the sequence (P20138 18-364 P19D limits assumed) above, with D2P, N3D counted along it
human CD33 F44H, sequence (P20138 18-364 F44H limits assumed): as the sequence (P20138 18-364 P19D limits assumed) above, with D2P, F27H counted along it
human CD33 W22Q, sequence (P20138 18-364 W22Q limits assumed): as the sequence (P20138 18-364 P19D limits assumed) above, with D2P, W5Q counted along it
human CD33 Q24I, sequence (P20138 18-364 Q24I limits assumed): as the sequence (P20138 18-364 P19D limits assumed) above, with D2P, Q7I counted along it
human CD33 T42K, sequence (P20138 18-364 T42K limits assumed): as the sequence (P20138 18-364 P19D limits assumed) above, with D2P, T25K counted along it
human CD33 F44D, sequence (P20138 18-364 F44D limits assumed): as the sequence (P20138 18-364 P19D limits assumed) above, with D2P, F27D counted along it
human CD33 P46Y, sequence (P20138 18-364 P46Y limits assumed): as the sequence (P20138 18-364 P19D limits assumed) above, with D2P, P29Y counted along it
human CD33 Q24S, sequence (P20138 18-364 Q24S limits assumed): as the sequence (P20138 18-364 P19D limits assumed) above, with D2P, Q7S counted along it
human CD33 Q24E, sequence (P20138 18-364 Q24E limits assumed): as the sequence (P20138 18-364 P19D limits assumed) above, with D2P, Q7E counted along it
human CD33 L23M, sequence (P20138 18-364 L23M limits assumed): as the sequence (P20138 18-364 P19D limits assumed) above, with D2P, L6M counted along it
human CD33 P46F, sequence (P20138 18-364 P46F limits assumed): as the sequence (P20138 18-364 P19D limits assumed) above, with D2P, P29F counted along it

B1: Refmab #4 (antibody, human IgG1, V domains shown)
VH: QVQLVQSGAEVKKPGESVKVSCKASGYTFTNYGMNWVKQAPGQGLEWMGWINTYTGEPTYADKFQGRVTMTTDTSTSTAYMEIRNLGGDDTAVYYCARWSWSDGYYVYFDYWGQGTSVTVSS
VL: DIVMTQSPDSLTVSLGERTTINCKSSQSVLDSSTNKNSLAWYQQKPGQPPKLLLSWASTRESGIPDRFSGSGSGTDFTLTIDSPQPEDSATYYCQQSAHFPITFGQGTRLEIK
notes: Tested in IgG format; human IgG1 Fc silent (PG-LALA)
- Mean % WT Binding (human CD33 N20T): 92.1 % WT binding
- Mean % WT Binding (human CD33 N20L): 89.8 % WT binding
- Mean % WT Binding (human CD33 N20Y): 25.7 % WT binding
- Mean % WT Binding (human CD33 N20D): 91.3 % WT binding
- Mean % WT Binding (human CD33 N20K): 102 % WT binding
- Mean % WT Binding (human CD33 F21S): 118 % WT binding
- Mean % WT Binding (human CD33 F21V): 118 % WT binding
- Mean % WT Binding (human CD33 F21H): 123 % WT binding
- Mean % WT Binding (human CD33 W22G): 105 % WT binding
- Mean % WT Binding (human CD33 W22T): 103 % WT binding
- Mean % WT Binding (human CD33 W22Y): 86.1 % WT binding
- Mean % WT Binding (human CD33 W22N): 100 % WT binding
- Mean % WT Binding (human CD33 W22Q): 111 % WT binding
- Mean % WT Binding (human CD33 L23M): 92.7 % WT binding
- Mean % WT Binding (human CD33 Q24S): 96.8 % WT binding
- Mean % WT Binding (human CD33 Q24I): 86.6 % WT binding
- Mean % WT Binding (human CD33 Q24N): 107 % WT binding
- Mean % WT Binding (human CD33 Q24E): 69.7 % WT binding
- Mean % WT Binding (human CD33 V25S): 106 % WT binding
- Mean % WT Binding (human CD33 V25I): 104 % WT binding
- Mean % WT Binding (human CD33 T42K): 86 % WT binding
- Mean % WT Binding (human CD33 F43V): 81.5 % WT binding
- Mean % WT Binding (human CD33 D18R): 100 % WT binding
- Mean % WT Binding (human CD33 F44I): 98.7 % WT binding
- Mean % WT Binding (human CD33 F44L): 100 % WT binding
- Mean % WT Binding (human CD33 F44P): 104 % WT binding
- Mean % WT Binding (human CD33 F44Q): 102 % WT binding
- Mean % WT Binding (human CD33 F44H): 84.9 % WT binding
- Mean % WT Binding (human CD33 F44D): 110 % WT binding
- Mean % WT Binding (human CD33 D18N): 76 % WT binding
- Mean % WT Binding (human CD33 P46I): 91 % WT binding
- Mean % WT Binding (human CD33 P46L): 96.3 % WT binding
- Mean % WT Binding (human CD33 P46F): 42.4 % WT binding
- Mean % WT Binding (human CD33 P46Y): 26.5 % WT binding
- Mean % WT Binding (human CD33 P19L): 101 % WT binding
- Mean % WT Binding (human CD33 I47V): 99 % WT binding
- Mean % WT Binding (human CD33 P19D): 94.8 % WT binding
